Assay results taken from patent US20110262445A1 (CEPHALON AUSTRALIA, published 2011).
Residue numbers refer to the chain shown, from its start. Names and notes keep the numbering of the source.

T1: human IL-12 (human, UniProt P29460 23-328; P29459 23-219)
T1 construct: Recombinant (Peprotech); FLAG-tagged IL-12 in the flow cytometry assays, biotinylated in the IL-12Rβ2 assay; also called hIL-12
T1 sequence 1: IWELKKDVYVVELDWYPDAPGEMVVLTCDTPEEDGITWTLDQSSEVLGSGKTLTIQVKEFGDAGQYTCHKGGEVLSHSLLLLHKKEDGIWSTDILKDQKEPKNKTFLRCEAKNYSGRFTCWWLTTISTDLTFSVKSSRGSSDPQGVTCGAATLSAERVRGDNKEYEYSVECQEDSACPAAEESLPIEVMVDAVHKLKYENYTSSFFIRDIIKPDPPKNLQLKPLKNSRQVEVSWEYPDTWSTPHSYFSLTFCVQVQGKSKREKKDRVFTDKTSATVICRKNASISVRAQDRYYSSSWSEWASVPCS
T1 sequence 2: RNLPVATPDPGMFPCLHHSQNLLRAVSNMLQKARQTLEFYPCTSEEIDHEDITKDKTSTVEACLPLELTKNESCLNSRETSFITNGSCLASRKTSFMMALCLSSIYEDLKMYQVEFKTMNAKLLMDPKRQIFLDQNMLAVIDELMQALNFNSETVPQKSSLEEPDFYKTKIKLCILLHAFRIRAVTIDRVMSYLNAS

T2: human IL-23 (human, UniProt P29460 23-328; Q9NPF7 20-189)
T2 construct: Recombinant (Ebioscience); HIS-tagged in flow cytometry, biotinylated in some assays; also called hIL-23; rhIL-23
T2 sequence 1: T1 sequence 1
T2 sequence 2: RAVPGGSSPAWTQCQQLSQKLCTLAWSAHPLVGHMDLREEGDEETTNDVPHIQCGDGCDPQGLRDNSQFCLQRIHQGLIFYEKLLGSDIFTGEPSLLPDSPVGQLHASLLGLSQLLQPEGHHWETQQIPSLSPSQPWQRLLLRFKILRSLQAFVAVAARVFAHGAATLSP

B1: Antibody 6 (antibody, human IgG1, kappa, V domains shown)
VH: EVQLQQSGADLVRSGASIKLSCTASGFNIKDYYMHWVKQRPEQGLEWIGWIDPENGDTEYAPKFQGKATMTADTSSNTAYLQLSSLTSEDTAVYYCNARKELRYFDVWGAGTTVTVSS
VL: DIVLTQSPATLSVTPGDSVSLSCRASQSISINLHWYQQKSHESPRLLIKFASQSISGIPSRFSGYGSGTDFTLSINSVETEDFGRYFCQQSNSWPLTFGAGTKLELKR
B2: Antibody 199 (antibody, human IgG1, kappa, V domains shown)
VH: QVQLVQSGAEVKKPGASVKVSCKASGYTFTDYYLHWVRQAPGQGLEWMGWIDPENGDTEYAPKFQGRVTMTTDTSTSTAYMELRSLRSDDTAVYYCAANKELRYFDVWGQGTMVTVSS
VL: EIVMTQSPATLSVSPGERATLSCRASQSISINLHWYQQKPGQAPRLLIYFASQSISGIPARFSGSGSGTEFTLTISSLQSEDFAVYYCQQSNSFPLTFGGGTKVEIKR
B3: Antibody 200 (antibody, human IgG1, kappa, V domains shown)
VH: B2 VH with F29L
VL: B2 VL
B4: Antibody 206 (antibody, human IgG1, kappa, V domains shown)
VH: B2 VH with T28A
VL: B2 VL
B5: Antibody 60 (antibody, human IgG1, kappa, V domains shown)
VH: EVQLVQSGAEVKKPGATVKISCKASGYTFSDYYLHWVRQRPEKGLEWMGWIDPENGDTEYAPKFQGKVTITADTSTDTGYLELSSLRSEDTAVYYCAANKELRYFDVWGQGTLVTVSS
VL: DIQMTQSPSSVSASVGDRVTITCRASQSISINLHWYQQKPGKAPKLLIKFASQSISGVPSRFSGSGSGTDFSLTINSLQPEDFATYYCQQSNSFPLTFGGGTKVEIKR
B6: Antibody 61 (antibody, human IgG1, kappa, V domains shown)
VH: B5 VH with R40A, E42G, K67R
VL: B5 VL with K49Y, S65Y
B7: Antibody 62 (antibody, human IgG1, kappa, V domains shown)
VH: B5 VH with E42G, K67R
VL: B5 VL with K49Y, S65Y
B8: Antibody 63 (antibody, human IgG1, kappa, V domains shown)
VH: B5 VH with R40A, K67R
VL: B5 VL with K49Y, S65Y
B9: Antibody 64 (antibody, human IgG1, kappa, V domains shown)
VH: B5 VH with R40A, E42G
VL: B5 VL with K49Y, S65Y
B10: Antibody 65 (antibody, human IgG1, kappa, V domains shown)
VH: B5 VH
VL: B5 VL with K49Y, S65Y
B11: Antibody 66 (antibody, human IgG1, kappa, V domains shown)
VH: B5 VH with R40A, E42G, K67R
VL: B5 VL with K49Y, T85R
B12: Antibody 67 (antibody, human IgG1, kappa, V domains shown)
VH: B5 VH with E42G, K67R
VL: B5 VL with K49Y, T85R
B13: Antibody 69 (antibody, human IgG1, kappa, V domains shown)
VH: B5 VH with R40A, E42G
VL: B5 VL with K49Y, T85R
B14: Antibody 70 (antibody, human IgG1, kappa, V domains shown)
VH: B5 VH
VL: B5 VL with K49Y, T85R
B15: Antibody 71 (antibody, human IgG1, kappa, V domains shown)
VH: B5 VH with R40A, E42G, K67R
VL: B5 VL with S65Y, T85R
B16: Antibody 72 (antibody, human IgG1, kappa, V domains shown)
VH: B5 VH with E42G, K67R
VL: B5 VL with S65Y, T85R
B17: Antibody 73 (antibody, human IgG1, kappa, V domains shown)
VH: B5 VH with R40A, K67R
VL: B5 VL with S65Y, T85R
B18: Antibody 74 (antibody, human IgG1, kappa, V domains shown)
VH: B5 VH with R40A, E42G
VL: B5 VL with S65Y, T85R
B19: Antibody 75 (antibody, human IgG1, kappa, V domains shown)
VH: B5 VH
VL: B5 VL with S65Y, T85R
B20: scFv combo. # 3 (scFv)
scFv: QVQLVQSGAEVKKPGASVKVSCKASGYAFTDYYLHWVRQAPGQGLEWMGWIDPENGDTEYAPKFQGRVTMTTDTSTSTAYMELRSLRSDDTAVYYCNANKELRYFDVWGQGTMVTVSSGGGGSGGGGSGGGGSEIVMTQSPATLSVSPGERATLSCRAPQSISINLHWYQQKPGQAPRLLIYFASQSISGIPARFSGSGSGTEFTLTISSLQSEDFAVYYCQQSNSFPLTFGGGTKVEIKR
notes: scFv-80 with VH T28A; VL S26P; not shown: proprietary C-terminal FLAG tag
B21: scFv combo. # 4 (scFv)
scFv: B20 scFv with A28T, F29L
notes: scFv-80 with VH F29L; VL S26P; not shown: proprietary C-terminal FLAG tag
B22: scFv combo. # 5 (scFv)
scFv: B20 scFv with P159S, S196F
notes: scFv-80 with VH T28A; VL S63F; not shown: proprietary C-terminal FLAG tag
B23: scFv combo. # 15 (scFv)
scFv: B20 scFv with A28T, F29L, P159S, S196F
notes: scFv-80 with VH F29L; VL S63F; not shown: proprietary C-terminal FLAG tag
B24: scFv combo. # 16 (scFv)
scFv: B20 scFv with A28T, F29L, P159S, S185R
notes: scFv-80 with VH F29L; VL S52R; not shown: proprietary C-terminal FLAG tag

The binders below were run against T1, human IL-12 (assay: ELISA, coated IL-12).
In short: (§1)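 Binding values are absorbance readings. After cytokine (1 μg/mL, carbonate buffer pH 9.6) was coated onto Maxisorp plates overnight at 4° C and the plates were blocked with 1% BSA in PBS, antibody titrations were bound for 1 hour at 25° C and detected with HRP-linked goat anti-human IgG or anti-murine immunoglobulin (1:2000). Color from TMB, stopped with 1M HCl, was read at 450 nm with 620 nm as reference.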

Binder	binding result
B1	no binding (tested: not given)

Target: T1, human IL-12
Test: ELISA, coated IL-12
Remark: another data set of the same source
Experimental: (§2) IL-12 (Peprotech), IL-23 (Ebioscience™), IL-12p40 (Ebioscience™) or IL-12p80 (Peprotech), was diluted to 1 μg/mL in carbonate coating buffer ([…] pH 9.6) and coated onto a 96 well plate (Nunc™, Maxisorp™) overnight at 4° C. The plate was then washed three times with wash buffer (0.01M PBS pH 7.2, 0.05% Tween-20) and then three times with 0.01M PBS pH 7.2. The wells were then blocked by adding 200 μl of blocking buffer (1% w/v BSA in 0.01 M PBS pH 7.2) to each well and incubating the plate at 25° C. for 1 hour. The antibody was diluted in antibody diluent (1% w/v BSA, 0.05% Tween-20 in 0.01M PBS pH 7.2) sufficient to generate a titration curve. The wells were incubated with the antibody for 1 hour at 25° C. The plate was then washed as previously described. Goat anti-human immunoglobulin G (H+L) antibody HRP conjugate (Zymed®) at 1:2000 in antibody diluent was used to detect bound primary antibody. Goat anti-murine immunoglobulin antibody HRP conjugate (Dako) at 1:2000 in antibody diluent was used to detect bound murine antibody. After incubation at 25° C. for 1 hour the plate was washed again as previously described. TMB substrate solution (Zymed®) was added to each well and the colour allowed to develop; the reaction was terminated by adding 1M HCl to the wells. The absorbance of each well was determined at 450 nm (ref. 620 nm).

Binder	binding result
B2	binds
B3	binds
B4	binds

Target: T1, human IL-12
Test: ELISA, coated IL-12
Remark: another data set of the same source
In short: as §1

Binder	binding result
B5	binds
B6	binds
B7	binds
B8	binds
B9	binds
B10	binds
B11	binds
B12	binds
B13	binds
B14	binds
B15	binds
B16	binds
B17	binds
B18	binds
B19	binds

What follows are binders tested against T2, human IL-23 (assay: ELISA, coated IL-23).
In short: as §1

Binder	binding result
B5	binds
B6	binds
B7	binds
B8	binds
B9	binds
B10	binds
B11	binds
B12	binds
B13	binds
B14	binds
B15	binds
B16	binds
B17	binds
B18	binds
B19	binds

Target: T2, human IL-23
Test: ELISA, coated IL-23
Remark: another data set of the same source
Experimental: as §2

Binder	binding result
B2	binds
B3	binds

These binders were tested against T1, human IL-12 (assay: SPR, single 81 nM analyte, scFv via FLAG).

Binder	Kd	koff	kon
B20	0.029 nM	4.5e-05 s⁻¹	1.6e+06 M⁻¹ s⁻¹
B21	0.027 nM	4.8e-05 s⁻¹	1.8e+06 M⁻¹ s⁻¹
B22	0.038 nM	6.5e-05 s⁻¹	1.7e+06 M⁻¹ s⁻¹
B23	0.039 nM	6.4e-05 s⁻¹	1.7e+06 M⁻¹ s⁻¹
B24	0.05 nM	7.5e-05 s⁻¹	1.5e+06 M⁻¹ s⁻¹
